Test results taken from PMC4787773.

Target: hnRNPK (human, UniProt P61978 1-463)
Assay: EMSA

Binder | binding result
GGGGCCGGGGCCGGGGCCGGGGCCGGGGCCGGGGCCGGGGCCGGGGCC (structured_DNA, 5-methylcytosine at each CpG) [d(GGGGCC)8 5mCpG] | no binding
GGGGCCGGGGCCGGGGCCGGGGCCGGGGCCGGGGCCGGGGCCGGGGCC (structured_DNA, 5-hydroxymethylcytosine at each CpG) [d(GGGGCC)8 5hmCpG] | no binding
